In publication PMC7566566:

T1: Hera (Thermus thermophilus, UniProt O07897 1-510)
T1 sequence: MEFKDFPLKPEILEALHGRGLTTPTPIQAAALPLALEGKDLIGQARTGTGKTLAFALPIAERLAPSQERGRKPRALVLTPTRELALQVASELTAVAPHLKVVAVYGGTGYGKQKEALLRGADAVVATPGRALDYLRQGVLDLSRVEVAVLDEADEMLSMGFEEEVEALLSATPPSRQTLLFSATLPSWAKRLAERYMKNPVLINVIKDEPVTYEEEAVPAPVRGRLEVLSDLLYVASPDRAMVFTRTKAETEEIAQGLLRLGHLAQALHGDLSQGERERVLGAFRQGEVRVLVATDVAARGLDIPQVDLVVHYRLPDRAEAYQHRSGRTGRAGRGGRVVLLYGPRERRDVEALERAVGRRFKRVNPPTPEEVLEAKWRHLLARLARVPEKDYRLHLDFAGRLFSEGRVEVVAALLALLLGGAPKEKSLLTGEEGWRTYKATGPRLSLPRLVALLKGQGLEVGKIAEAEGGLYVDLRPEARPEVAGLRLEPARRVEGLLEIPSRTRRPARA

B1: tRNATyr (TT_RS08805) (structured_RNA)
RNA: GGGCAGGUGCCCGAGCGGCCAAAGGGGACGGUCUGUAAAACCGUUGGCGUAUGCCUUCGCUGGUUCGAAUCCAGCCCUGCCCACCA
B2: tRNASer (TT_RS06780) (structured_RNA)
RNA: GGAGAGGUGGCCGAGUGGUCGAAGGCGGCACCCUGCUAAGGUGUUGCACCGGGAAAACCGGUGCCGCGGGUUCGAAUCCCGCCCUCUCCGCCA
B3: tRNAGly (TT_RS08190) (structured_RNA)
RNA: GCGGGAGUAGCUCAGUCGGUAGAGCACGACCUUGCCAAGGUCGGGGUCGCGGGUUCAAGUCCCGUCUCCCGCUCCA
B4: tRNAPro (TT_RS09670) (structured_RNA)
RNA: CGGGGAGUAGCGCAGCCUGGUAGCGCACACGCUUGGGGUGCGUGGGGUCGUCGGUUCAAAUCCGGCCUCCCCGACCA
B5: tRNAPro (TT_RS01350) (structured_RNA)
RNA: CGGGGCGUAGCGCAGGCCGGUAGCGCACCUGCUUUGGGAGCAGGGGGUCGCCCGUUCAAAUCGGGCCGCCCCGACCA
B6: tRNAPro (TT_RS02830) (structured_RNA)
RNA: CGGGGAGUAGCGCAGCCCGGUAGCGCACCUCGUUCGGGACGAGGGGGUCGCUGGUUCAAAUCCAGUCUCCCCGACCA

Molecular target: T1, Hera
Test: competition

Binder	binding result	Kd [nM]
AGGTCCCAA (ssDNA) [9mer DNA]	no binding	–
B1	–	400
UUUUUUUUUUUUUUUUUUUUUUUUUUUUUUUUUUUUUUUUUUUUUUUUUU (ssRNA) [50U]	–	240 ± 50
B2	–	60
B3	–	400
UAGGGGCGUGUGGGCCCACCCGGCGUGGCGCUGGCUCCACC (ssRNA) [RNA 2]	binds	–
UUUGGGGCUGCGGGGCUGGACCCCACGGGCGCCGCCACCC (ssRNA) [RNA 13]	binds	–
AAAAAAAAAAAAAAAAAAAAAAAAAAAAAAAAAAAAAAAAAAAAAAAAAA (ssRNA) [50A]	no binding	–
B4	–	400
CUGGCUUGCCCGGGAGAUCCUGGGCUACCCCGA (ssRNA) [RNA 9]	binds	–
B5	–	1400
B6	–	600

Molecular target: T1, Hera
Test: competition
Remark: another data set of the same source

Binder	binding result
GCCAAGCCGGGCCUGGAC (ssRNA) [RNA 1638]	no binding
CUCGUGGCCCUGGCGAGGAGGCUCGUGGAGGAGUAC (ssRNA) [RNA 1640]	no binding

Molecular target: T1, Hera
Test: competition
Remark: another data set of the same source

Binder	binding result
CCUGCACGUUCCCACCGCCUGGGU (ssRNA) [RNA 1654]	no binding
